According to patent US20110236309A1:

How the values were obtained:
[1] = target: T1, TGF-β3 (Homo sapiens (Human)) (UniProt P10600)
T1 sequence: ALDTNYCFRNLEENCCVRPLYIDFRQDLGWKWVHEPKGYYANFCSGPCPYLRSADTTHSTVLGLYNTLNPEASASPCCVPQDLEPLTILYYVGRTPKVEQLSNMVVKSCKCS

[2] = target: TGF-β1 (Homo sapiens (Human)) (UniProt P01137)
[3] = target: TGF-β2 (Homo sapiens (Human)) (UniProt P61812)

IC50 for TGF-β3 (neutralization, Mv1Lu luciferase reporter cells) [1]: 0.029 nM
IC50 for TGF-β1 (neutralization, Mv1Lu luciferase reporter cells) [2]: 1.43 nM
IC50 for TGF-β2 (neutralization, Mv1Lu luciferase reporter cells) [3]: 8.67 nM
Substance: pan-specific TGF-β neutralizing antibody 1D11 (R&D Systems)
